Experimental data from patent US20210324011A1 (University of Washington, published 2021).

B1: DHF4 (designed binder)
chain: ADEELARILIEMAKTAAEAAQMAAEVTGDPRVRLLAVRLKMLALMAALEVILDPSSSDVNEALKLIVEAIEAAVKALLAAVRTGDPEVRELARELVRLAVEAAEEVQRNPSSSDVNEALKLIVEAIEAAVRALEAAERTGDPEVRELARELVRLAVEAAEEVQRNPSSEEVNEALKKIVKAIQEAVESLREAEESGDPEKREKARERVREAVERAEEVQRN
notes: vector pCDB24 (SUMO fusion); forms a homo-polymer
B2: DHF31 (designed binder)
chain: AAIETLNVMTLVMLALLLLIQAISKGSAEDLEKALRTAEEAAREAKKVLEQAEKEGDPDQALKAVELVVVVAQLLLQIAIASGSREALERALRVAEEAARLAKRVLELAEKQGDPEVALRAVELVVRVAELLLRIAKESGSEEALERALRVAEEAARLAKRVLELAEKQGDPEVARRAVELVKRVAELLERIARESGSEEAKERAERVREEARELQERVKELREREG
notes: as for B1
B3: DHF34 (designed binder)
chain: AEVILLVAVLLLAKAVEAVLMGNRVAFRLAAELALRVAKLLVIMAKVEGDPELVLEAAKVALVVASLAALNGDKEVFKKAAESALEVAKRLVEVASKEGDPELVLEAAKVALKVAELAAKNGDKEVFKKAAESALEVAKRLVEVASKEGDPELVEEAAKVAEEVRKLAKKQGDEEVYEKARETAREVKEELKRVREEKG
notes: as for B1
B4: DHF36 (designed binder)
chain: MVEKNMLRLRLVKIVVENAKTKGDDTEEAREAAREAFEKVRVAAEVAGIDSSEVLELAIRLIKEVVLLALLEGYDISEAARAAAEAFVRVAVAAKIAGITSSEVLELAIRLIKEVVMNAMMEGYDISEAARAAAEAFKLVAEAAKRAGITSSETLKRAIEEIRKRVEEAQREGNNISVAALEAADEFRKKAEELKRRGLE
notes: vector pET28b; forms a homo-polymer
B5: DHF38 (designed binder)
chain: AEELLKRVEKLVKEAEELLRQAMKKGSEELLEVALVVAQMAAREAKKVLTMAEVEGDPEVALRAVELVVRVAELLLRIALVSGSEEALERALRVAEEAARLAKRVLELAESQGDPEVALRAVELVVRVAELLLLIAKVSGSEEALERALRVAEEAARLAKRVLELAEKQGDPAVAILAVMLVKRVAELLENIARESGSEEAKERAERVREEARELQERVKELKERAG
notes: vector pCDB24 (SUMO fusion, removed with SUMO protease); forms a homo-polymer; cryoEM PDB 6E9Y
B6: DHF40 (designed binder)
chain: SSEKEELRERLVKICVELAKLKGDDTLKAAEAAEEAFRLVVLAAMLAGIDSSEVLELAIRLIKTCVVLAAMEGYDISEACRAAAEAFTRVAMAALRAGITSSLVLKAAIELIKECVLNAAVEGYDISEACRAAAEAFKRVAEAAKRAGITSLETLLRAIEEIRKRVEEAQREGNDISEACRQAAEEFRKKAEELKRRGDV
notes: as for B1
B7: DHF44 (designed binder)
chain: AVLALMVVNLLVQLAIELLSRAMLKGSAEDLEKALRTAEEAAREAKKVLEQAEKDGDPEVALLAVELVVVVATILLMIAKISGSEEALERALRVAEEAARLAKRVLELAEKQGDPEVALRAVELVVRVAELLLRIAKESGSEEALERALRVAEEAARLAKRVLELAEKQGDPEVARRAVELVKRVAELLERIARESGSEEAKERAERVREEARELQERVKELREREG
notes: as for B1
B8: DHF46 (designed binder)
chain: MGHHHHHHSSGTKEERVLLMKVAILAIVAAKKGNTDEVRKALELALLIAKVSGTTEAVKLALEVVARVAIEAARRGNTDAVREALEVALEIARESGTTEAVKLALEVVARVAIEAARRGNTEAVVEALLVALEIAKESGTEEAVRLALEVVKRVSNEALKQGNVDAVKVALEVRKMIEELSG
notes: vector pET28b; forms a homo-polymer; cryoEM PDB 6E9R
B9: DHF47 (designed binder)
chain: INLTIAILVAILVATMVELVAIRAQLEGNPELAASAMELRRAVEEAIEEAEKQGNPLLVLWVAVAAKVAAEVIKVAIQAEKEGNRDLFRAALELVRAVIEAIEEAVKQGNPELVEWVARAAKVAAEVIKVAIQAEKEGNRDLFRAALELVRAVIEAIEEAVKQGNPELVERVARLAKKAAELIKRAIRAEKEGNRDERREALERVREVIERIEELVRQGN
notes: as for B1
B10: DHF5 (designed binder)
chain: ALDLLARVIVLVMEAVKLLVLAVIMGLEMILRVALRLAEEAARAAKAVLLLAEVEGDPEVALKAVELVVRVAELLLRIAKESGSEEALERALRVAEEAARLAKRVLELAEKQGDPEVALRAVELVVRVAELLLRIAKESGSEEALERALRVAEEAARLAKRVLELAEKQGDPEVARRAVELVKRVAELLERIARESGSEEAKERAERVREEARELQERVKELREREG
notes: as for B1
B11: DHF48 (designed binder)
chain: MAVEEAIRVMRLVREAEQVLLQAKMMGSERVLEMALRTAEEAAREAKLVLAVAELEGDPVVALIAVELVVRVAELLLRIAKESGSEEALERALRVAEEAARLAKRVLELAEKQGDPEVALRAVELVVRVAELLLRIAKESGSEEALERALRVAEEAARLAKRVLELAEKQGDPEVARRAVELVKRVAELLERIARESGSEEAKERAERVREEARELQERVKELREREGLE
notes: as for B4
B12: DHF49 (designed binder)
chain: MGHHHHHHSSGSDEEEARELIERAAEAAKRAVEAAERTGDPNVVELAKELVRLAQEAAEEVKRDPSSSDVNEALKLIVEAIEAAVRALEAAERTGDPVVRLLARELVRLAVEAAEEVQRNPSSSDVNEALKLIVEAIEAAVRALEAAERTGDPEVRELARELVRLAVEAAEEVQRNPSSEQVNEALKKIVKAIQEAVESLREAEESGDPEKRDKARLRVLEAVIRAMVVQIN
notes: as for B4
B13: DHF50 (designed binder)
chain: AIVQLMTVIAMAVIANALLIRAIVNGSAEDLEKALRTAEEAAREAKKVLEQAEKDGDPEVALRAVELVVLVAVNLLLIAKESGSEEALERALRVAEEAARLAKRVLELAEKVGDPEVALRAVELVVRVAELLLRIAKESGSEEALERALRVAEEAARLAKRVLELAEKQGDPEVARRAVELVKRVAELLERIARESGSEEAKERAERVREEARELQERVKELREREG
notes: as for B1
B14: DHF51 (designed binder)
chain: AVDQMIRVIVLVKEAEEALLNAKLLGSEMALTLALRTAEEAARVAKTVLELAEKDGDPVVALLAVELVVRVAELLLRIAKESGSEEALERALRVAEEAARLAKRVLELAEKQGDPEVALRAVELVVRVAELLLRIAKESGSEEALERALRVAEEAARLAKRVLELAEKQGDPEVARRAVELVKRVAELLERIARESGSEEAKERAERVREEARELQERVKELREREG
notes: as for B1
B15: DHF52 (designed binder)
chain: SLKELLELERVAVEAIVAAAEGNTMEVIEQLQRAMLIAVLSGTTSAVKLALEVVARVAIEAARIGNTDAVRIALSVALTIAVISGTTEAVKLALEVVARVAIEAARRGNTDAVREALEVALEIARESGTEEAVRLALEVVKRVSDEAKKQGNEDAVKEAEEVRKKIEEESG
notes: as for B1
B16: DHF58 (designed binder)
chain: MELLRVVMLVKEAEELLTLAVIKGSEDDLQKALRTAVEAAREAVKVLLQAVKRGDPEVALRAVELVVRVAELLLRIAKESGSELALKMALLVAEEAARLAKIVLELAEKQGDPEVALRAVELVVRVAELLLRIAKESGSEEALERALRVAEEAARLAKRVLELAEKQGDPEVARRAVELVKRVAELLERIARESGSEEAKERAERVREEARELQERVKELREREGLE
notes: vector pET28b; forms a homo-polymer; cryoEM PDB 6E9T (4-repeat structure); also called DHF58 four-repeat protomer
B17: DHF62 (designed binder)
chain: MGIVLVIESLEAEVRLEKAKVLSVLARVRGDLKELAEALIEEARAVQELARVACEKGNSEEAERASEKAQRVLEEARKVSEEAREQGDDEVLALALIAIALAVLALAEVACCRGNSEEAERASEKAQRVLEEARKVSEEAREQGDDEVLALALIAIALAVLALAEVACCRGNKEEAERAYEDARRVEEEARKVKESAEEQGDSEVKRLAEEAEQLAREARRHVQECRGLE
notes: as for B4
B18: DHF76 (designed binder)
chain: MGLEKEVLRVKLVKICVLLARLKGDDTEEAREAARQAFEVVRLAAELAGIDSSEVLELAIRLIKECVENAQREGYDISLACMLAALAFKRVAEAAKRAGITSSEVLELAIRLIKECVENAQRDGYDISEACRAAAEAFKRVAEAAKRAGITSSETLKRAIEEIRKRVEEAQREGNEISEACRQAAEEFRKKAEELKRLE
notes: as for B4
B19: DHF77 (designed binder)
chain: MGDSMKLVMLLLKKAVTLAKLNNDDMVALEIERAAKQIVLALAVNKSDEMAKVMLALAKAVLLAAKNNDDEVAREIARAAAEIVEALKENNSDEMAKVMLALAKAVLLAAKNNDDEVAREIARAAAEIVEALRENNSDEMAKKMLELAKRVLDAAKNNDDETAREIARQAAEEVEADRENLE
notes: as for B4
B20: DHF78 (designed binder)
chain: MGELVLLVAKLALAVAVQASALGDEEVFRKAAEKALELAKRLVELAKLIGDPELVLEAAKVALEVAELAAKNGDKEVFKKAAESALEVAKRLVEVASKEGDPELVLEAAKVALRVAELAAKNGDKEVFKKAAESALEVAKRLVEVASKEGDPELVEEAAKVAEEVRKLAKKQGDEEVYEKARETAREVKEELKRVREEKGLE
notes: as for B4
B21: DHF8 (designed binder)
chain: MGLELSLVINLVLLANLLHLQAMMKGSSEDLEKALRTAEEAAREAKKVLEQAEKNGDPEVALRAVELVVIVAITLLLIAISSGSEEALERALRVAEEAARLAKRVLELAEKAGDPEVALRAVELVVRVAELLLRIAKESGSEEALERALRVAEEAARLAKRVLELAEKQGDPEVARRAVELVKRVAELLERIARESGSEEAKERAERVREEARELQERVKELREREGLE
notes: as for B4

Target: the molecule itself
Experiment: negative stain EM; 1 = filaments observed (self-assembly)
Description: The designs were expressed in Escherichia coli under the control of a T7 promoter and purified using immobilized metal affinity chromatography (IMAC). […] IMAC eluates were concentrated, and filament formation was monitored by negative stain electron microscopy (EM); insoluble designs were characterized by EM either directly in the initial insoluble fraction, or after solubilization in guanidine hydrochloride, IMAC, and subsequent removal of denaturant.
Negative Stain Electron Microscopy. Soluble fractions were concentrated and insoluble fractions were resuspended in buffer (25 mM Tris, 75 mM NaCl, pH 8) for EM screening. A drop of 6 μL (1 μl sample instantly diluted with 5 μl of buffer) was applied on negatively glow discharged, carbon-coated 200-mesh copper grids (Ted Pella, Inc.), washed with Milli-Q™ Water and stained using 0.75% uranyl formate as described previously (28). The screening was performed on either a 120 kV Tecnai Spirit™ T12 transmission electron microscope (FEI, Hillsboro, Oreg.) or a 100 kV Morgagni M268 transmission electron microscope (FEI, Hillsboro, Oreg.). Images were recorded on a bottom mount Teitz CMOS™ 4 k camera system. The contrast of the images was enhanced in the Fiji software (29) for clarity.

Binding result, binds:
B1, B2, B3, B4, B5, B6, B7, B8, B9, B10, B11, B12, B13, B14, B15, B16, B17, B18, B19, B20, B21
